B1: HDV Ribozyme (parent)
chain: GGCCGGCAUGGUCCCAGCCUCCUCGCUGGCGCCGGCUGGGCAACAUUCCGAGGGGACCGUCCCCUCGGUAAUGGCGAAUGGGACCCA

In the data set the parent is B1. The data set can be described thus: self-cleavage, relative activity (ratio to wild type); higher = more cleavage; co-transcriptional.
Regarding GGCCGGCAUGGUCCCAGCCUCCUCGCUGGCGCCGGCUGGGCAACAUUCCGAAGGGACCGUCCCAUCGGUAAUGGCGAAUGGGACCCA [G52A C64A], the self-cleavage was found to be 0.786.

Regarding GGCCGGCAUGGUCCCAGCCUCCUCGCUGGCGCCGGCUGGGCAACAUUCCGAAGGGACCGUCCCCUCGGUAAUGGCGAAUGGGAACCA [G52A C84A], the self-cleavage amounted to 0.736.

On to GGCCGGCAUGGUCCCAGCCUCCUCGCUGGCGCCGGCUGGGCAACAUUCCGAAGGGACCGUCCCCUCGGUAAUGGCGAGUGGGACCCA [G52A A78G], for which the self-cleavage worked out at 0.604.

On to GGCCGGCAUGGUCCCAGCCUCCUCGCUGGCGCCGGCUGGGCAACAUUCCGACGGGACCGUCCCCUCGGUUAUGGCGAAUGGGACCCA [G52C A70U], for which the self-cleavage came to 0.782.

Turning to GGCCGGCAUGGUCCCAGCCUCCUCGCUGGCGCCGGCUGGGCAACAUUCCGAAGGGACCGUCCCCUCGGUAAUGGCGAAUGGGCCCCA [G52A A83C], the self-cleavage worked out at 0.374.

With GGCCGGCAUGGUCCCAGCCUCCUCGCUGGCGCCGGCUGGGCAACAUUCCGAAGGGACCGUCCCCUCGGUAAUGGCGAAGGGGACCCA [G52A U79G], the self-cleavage stood at 0.718.

As for GGCCGGCAUGGUCCCAGCCUCCUCGCUGGCGCCGGCUGGGCAACAUUCCGAAGGGACCGUCCCCUCGGUAAUGGCGAAAGGGACCCA [G52A U79A], the self-cleavage came to 0.95.

As to GGCCGGCAUGGUCCCAGCCUCCUCGCUGGCGCCGGCUGGGCAACAUUCCGAAGGGACCGUCCCCUCGGUAAUGGCGUAUGGGACCCA [G52A A77U], the self-cleavage was 0.694.

As to GGCCGGCAUGGUCCCAGCCUCCUCGCUGGCGCCGGCUGGGCAACAUUCCGAAGGGACCGUCCACUCGGUAAUGGCGAAUGGGACCCA [G52A C63A], the self-cleavage worked out at 0.774.

For the variant GGCCGGCAUGGUCCCAGCCUCCUCGCUGGCGCCGGCUGGGCAACAUUCCGAAGGGAGCGUCCCCUCGGUAAUGGCGAAUGGGACCCA [G52A C57G], the self-cleavage was 1.01.

Turning to GGCCGGCAUGGUCCCAGCCUCCUCGCUGGCGCCGGCUGGGCAACAUUCCGAAGGGAUCGUCCCCUCGGUAAUGGCGAAUGGGACCCA [G52A C57U], the self-cleavage amounted to 1.06.

Take GGCCGGCAUGGUCCCAGCCUCCUCGCUGGCGCCGGCUGGGCAACAUUCCGAAGGUACCGUCCCCUCGGUAAUGGCGAAUGGGACCCA [G52A G55U]: the self-cleavage is 0.934.

With GGCCGGCAUGGUCCCAGCCUCCUCGCUGGCGCCGGCUGGGCAACAUUCCGAAGGGACCGCCCCCUCGGUAAUGGCGAAUGGGACCCA [G52A U60C], the self-cleavage is 1.08.

GGCCGGCAUGGUCCCAGCCUCCUCGCUGGCGCCGGCUGGGCAACAUUCCGAAGGGACCGUCCCCUAGGUAAUGGCGAAUGGGACCCA [G52A C66A]: the self-cleavage amounted to 1.09.

Regarding GGCCGGCAUGGUCCCAGCCUCCUCGCUGGCGCCGGCUGGGCAACAUUCCGAAGCGACCGUCCCCUCGGUAAUGGCGAAUGGGACCCA [G52A G54C], the self-cleavage is 0.842.

For the variant GGCCGGCAUGGUCCCAGCCUCCUCGCUGGCGCCGGCUGGGCAACAUUCCGAAGGGACCGUCCCCUCGGUGAUGGCGAAUGGGACCCA [G52A A70G], the self-cleavage stood at 1.02.

For the variant GGCCGGCAUGGUCCCAGCCUCCUCGCUGGCGCCGGCUGGGCAACAUUCCGAAUGGACCGUCCCCUCGGUAAUGGCGAAUGGGACCCA [G52A G53U], the self-cleavage worked out at 0.773.

Turning to GGCCGGCAUGGUCCCAGCCUCCUCGCUGGCGCCGGCUGGGCAACAUUCCGACGGGACCGUCCCCUCGGUAAUGGCGAAUGGGACCCG [G52C A87G], the self-cleavage amounted to 0.985.

Turning to GGCCGGCAUGGUCCCAGCCUCCUCGCUGGCGCCGGCUGGGCAACAUUCCGAAGGGACCGUCCCCUCGGUAAUGGCGAAUGGGACCCG [G52A A87G], the self-cleavage was determined as 0.86.

As for GGCCGGCAUGGUCCCAGCCUCCUCGCUGGCGCCGGCUGGGCAACAUUCCGAAGGGACCGUCCCCUCGGUAAUGGCUAAUGGGACCCA [G52A G76U], the self-cleavage was 0.983.

With GGCCGGCAUGGUCCCAGCCUCCUCGCUGGCGCCGGCUGGGCAACAUUCCGAAGGGACAGUCCCCUCGGUAAUGGCGAAUGGGACCCA [G52A C58A], the self-cleavage was 1.14.

Regarding GGCCGGCAUGGUCCCAGCCUCCUCGCUGGCGCCGGCUGGGCAACAUUCCGAAGGGACCGUCCCCUCGGUAAUGGCGAAUGCGACCCA [G52A G81C], the self-cleavage turned out to be 0.259.

Regarding GGCCGGCAUGGUCCCAGCCUCCUCGCUGGCGCCGGCUGGGCAACAUUCCGAAGGGACCGUCACCUCGGUAAUGGCGAAUGGGACCCA [G52A C62A], the self-cleavage turned out to be 0.732.

For the variant GGCCGGCAUGGUCCCAGCCUCCUCGCUGGCGCCGGCUGGGCAACAUUCCGAAGGGACCGUCUCCUCGGUAAUGGCGAAUGGGACCCA [G52A C62U], the self-cleavage came to 1.12.

In the case of GGCCGGCAUGGUCCCAGCCUCCUCGCUGGCGCCGGCUGGGCAACAUUCCGAAGGGACCGUCCCCUCGGUAAUUGCGAAUGGGACCCA [G52A G73U], the self-cleavage was 0.338.

On to GGCCGGCAUGGUCCCAGCCUCCUCGCUGGCGCCGGCUGGGCAACAUUCCGAAGGGACCGUCCCCUCUGUAAUGGCGAAUGGGACCCA [G52A G67U], for which the self-cleavage was found to be 0.843.

As to GGCCGGCAUGGUCCCAGCCUCCUCGCUGGCGCCGGCUGGGCAACAUUCCGAAGGGACCGUCCCCUCGCUAAUGGCGAAUGGGACCCA [G52A G68C], the self-cleavage was determined as 0.436.

GGCCGGCAUGGUCCCAGCCUCCUCGCUGGCGCCGGCUGGGCAACAUUCCGAAGGGACCGUCCCCUCGUUAAUGGCGAAUGGGACCCA [G52A G68U]: the self-cleavage was determined as 0.591.

Regarding GGCCGGCAUGGUCCCAGCCUCCUCGCUGGCGCCGGCUGGGCAACAUUCCGAAGGGACCGUGCCCUCGGUAAUGGCGAAUGGGACCCA [G52A C61G], the self-cleavage came to 0.897.

Take GGCCGGCAUGGUCCCAGCCUCCUCGCUGGCGCCGGCUGGGCAACAUUCCGAAGGGACCGUCCCCUCGGUAAUGGCGAAUGGAACCCA [G52A G82A]: the self-cleavage was determined as 0.439.

In the case of GGCCGGCAUGGUCCCAGCCUCCUCGCUGGCGCCGGCUGGGCAACAUUCCGAAGGGACCGUCCCCUCGGUAAUGGCGAAUGGCACCCA [G52A G82C], the self-cleavage is 0.362.

For GGCCGGCAUGGUCCCAGCCUCCUCGCUGGCGCCGGCUGGGCAACAUUCCGAAGGGACCGUCCCCUCGGGAAUGGCGAAUGGGACCCA [G52A U69G], the self-cleavage was 0.955.

(Values after the RNAGym collection of RNA variant scans (doi:10.7554/elife.80360).)
